# Source: patent US20260242419A1, “A CYCLIC PEPTIDE FOR TRAPPING INTERLEUKIN-1 BETA” (Merck Sharp & Dohme LLC, priority 2023, published 2026)
# Starred links: 1 amine or outer side, 2 acyl side, 3 side chain; linkers in the order of their positions; H or OH if unused. Non-standard residues stand in square brackets, D forms with d. Trp4Az = (2S)-2-amino-3-(1H-pyrrolo[3,2-b]pyridin-3-yl)propanoic acid, O=C([C@H](Cc1c[nH]c2cccnc12)N[*:1])[*:2]; dPro(4R-(4-pyridylmethyl)) = O=C(O)[C@H]1C[C@@H](Cc2ccncc2)CN1; Ala(piperidin-4-yl) = O=C([C@H](CC1CCN([*:3])CC1)N[*:1])[*:2]; dPro(3S-(4-Br-benzyl)) = O=C(O)[C@@H]1NCC[C@@H]1Cc1ccc(Br)cc1; Trp(βS-Me,4-F) = C[C@@H](c1c[nH]c2cccc(F)c12)[C@H](N)C(=O)O; Bip(4'-COOH) = N[C@@H](Cc1ccc(-c2ccc(C(=O)O)cc2)cc1)C(=O)O; Ala(1-bicyclo(1.1.1)pentyl) = N[C@@H](CC12CC(C1)C2)C(=O)O; dPro(4R-Bzl(4-F)) = O=C(O)[C@H]1C[C@@H](Cc2ccc(F)cc2)CN1; 1Nal(3S-Me) = C[C@@H](c1cccc2ccccc12)[C@H](N)C(=O)O; Ala(morpholin-4-yl) = N[C@@H](CN1CCOCC1)C(=O)O; Ala(pyrimidin-5-yl) = N[C@@H](Cc1cncnc1)C(=O)O; Phe(4-COOH) = N[C@@H](Cc1ccc(C(=O)O)cc1)C(=O)O; Pro(cis-4-F) = O=C(O)[C@@H]1C[C@H](F)CN1; cisHyp = O=C(O)[C@@H]1C[C@H](O)CN1; d(αMeD) = C[C@@](N)(CC(=O)O)C(=O)O; 4Pal = N[C@@H](Cc1ccncc1)C(=O)O; Cba = N[C@@H](CC1CCC1)C(=O)O; αMeK = C[C@](N)(CCCCN)C(=O)O; Orn = NCCC[C@H](N)C(=O)O; Dab = NCC[C@H](N)C(=O)O; Dap = NC[C@H](N)C(=O)O; Aib = CC(C)(N)C(=O)O
# B1: SEQ ID NO: 149 (peptide)
# peptide: cyclo([Bip(4'-COOH)][4Pal][Phe(4-COOH)]G[Pro(cis-4-F)][1Nal(3S-Me)][Aib]EW[Aib][Ala(pyrimidin-5-yl)]Q[Dab]G[dPro(4R-Bzl(4-F))])
# modifications: ring closure inferred; not fully specified (bridges); printed as Bip4CO2H-4Pal-Phe4COOH-G-Proc4F-sbMe1Nal-Aib-E-W-Aib-PyrimAla-Q-Dab-G-dProc4Bn4F, cyclic (macrolactam)
# Target: Recombinant human IL-1β (BioLegend 579404) (human, UniProt P01584 117-269)
# Test: cell-based or functional assay
row,MRC5 IC50 [nM],Binder
1,0.022,"cyclo([Bip(4'-COOH)][4Pal][Phe(4-COOH)]G[Pro(cis-4-F)][Trp(βS-Me,4-F)][Aib]EW[Aib][Ala(pyrimidin-5-yl)]Q[Orn]G[dPro(3S-(4-Br-benzyl))]) (ring closure inferred) [SEQ ID NO: 151]"
2,0.039,"cyclo([Bip(4'-COOH)][Ala(1-bicyclo(1.1.1)pentyl)][Phe(4-COOH)]G[Pro(cis-4-F)][Trp(βS-Me,4-F)][Aib]EW[αMeK][Ala(piperidin-4-yl)]Q[Dab]G[dPro(4R-Bzl(4-F))]) (ring closure inferred) [SEQ ID NO: 166]"
3,0.019,"cyclo([Bip(4'-COOH)][4Pal][Phe(4-COOH)]G[Pro(cis-4-F)][Trp(βS-Me,4-F)][Aib]EW[Aib][Ala(pyrimidin-5-yl)]Q[Dap]G[dPro(3S-(4-Br-benzyl))]) (ring closure inferred) [SEQ ID NO: 150]"
4,0.024,B1
5,0.023,"cyclo([Bip(4'-COOH)][Ala(1-bicyclo(1.1.1)pentyl)][Phe(4-COOH)]G[cisHyp][Trp(βS-Me,4-F)][Aib]SW[d(αMeD)][Ala(pyrimidin-5-yl)]Q[Dab]G[dPro(4R-(4-pyridylmethyl))]) (ring closure inferred) [SEQ ID NO: 160]"
6,0.011,"cyclo([Bip(4'-COOH)][4Pal][Phe(4-COOH)]G[Pro(cis-4-F)][Trp(βS-Me,4-F)][Aib]SW[d(αMeD)][Ala(pyrimidin-5-yl)]Q[Dab]G[dPro(4R-(4-pyridylmethyl))]) (ring closure inferred) [SEQ ID NO: 154]"
7,0.013,"cyclo([Bip(4'-COOH)][4Pal][Phe(4-COOH)]G[cisHyp][Trp(βS-Me,4-F)][Aib]SW[d(αMeD)][Ala(pyrimidin-5-yl)]Q[Dab]G[dPro(4R-(4-pyridylmethyl))]) (ring closure inferred) [SEQ ID NO: 159]"
8,0.015,"cyclo([Bip(4'-COOH)][4Pal][Phe(4-COOH)]G[Pro(cis-4-F)][Trp(βS-Me,4-F)][Aib]SW[d(αMeD)][Ala(pyrimidin-5-yl)]QSG[dPro(4R-(4-pyridylmethyl))]) (ring closure inferred) [SEQ ID NO: 156]"
9,0.039,"cyclo([Bip(4'-COOH)][Cba][Phe(4-COOH)]G[cisHyp][Trp(βS-Me,4-F)][Aib]SW[d(αMeD)][Ala(pyrimidin-5-yl)]Q[Dab]G[dPro(4R-(4-pyridylmethyl))]) (ring closure inferred) [SEQ ID NO: 164]"
10,0.019,cyclo([Bip(4'-COOH)][4Pal][Phe(4-COOH)]G[Pro(cis-4-F)][1Nal(3S-Me)][Aib]EW[Aib][Ala(pyrimidin-5-yl)]Q[Dab]G[dPro(3S-(4-Br-benzyl))]) (ring closure inferred) [SEQ ID NO: 153]
11,0.011,"cyclo([Bip(4'-COOH)][Ala(1-bicyclo(1.1.1)pentyl)][Phe(4-COOH)]G[Pro(cis-4-F)][Trp(βS-Me,4-F)][Aib]SW[d(αMeD)][Ala(pyrimidin-5-yl)]Q[Dab]G[dPro(4R-(4-pyridylmethyl))]) (ring closure inferred) [SEQ ID NO: 155]"
12,0.022,"cyclo([Bip(4'-COOH)][Ala(1-bicyclo(1.1.1)pentyl)][Phe(4-COOH)]G[Pro(cis-4-F)][Trp(βS-Me,4-F)][Aib]EW[αMeK][Ala(morpholin-4-yl)]Q[Dab]G[dPro(4R-Bzl(4-F))]) (ring closure inferred) [SEQ ID NO: 165]"
13,0.038,"cyclo([Bip(4'-COOH)][Ala(1-bicyclo(1.1.1)pentyl)][Phe(4-COOH)]G[cisHyp][Trp(βS-Me,4-F)][Aib]SW[d(αMeD)][Ala(pyrimidin-5-yl)]QSG[dPro(4R-(4-pyridylmethyl))]) (ring closure inferred) [SEQ ID NO: 157]"
14,0.05,"cyclo([Bip(4'-COOH)][4Pal][Phe(4-COOH)]G[Pro(cis-4-F)][Trp(βS-Me,4-F)][Aib]S[Trp4Az][Aib][Ala(pyrimidin-5-yl)]Q[Dab]G[dPro(4R-(4-pyridylmethyl))]) (ring closure inferred) [SEQ ID NO: 162]"
15,0.013,"cyclo([Bip(4'-COOH)][Ala(1-bicyclo(1.1.1)pentyl)][Phe(4-COOH)]G[Pro(cis-4-F)][Trp(βS-Me,4-F)][Aib]SW[d(αMeD)][Ala(pyrimidin-5-yl)]QSG[dPro(4R-(4-pyridylmethyl))]) (ring closure inferred) [SEQ ID NO: 158]"
16,0.019,"cyclo([Bip(4'-COOH)][4Pal][Phe(4-COOH)]G[cisHyp][Trp(βS-Me,4-F)][Aib]SW[d(αMeD)][Ala(pyrimidin-5-yl)]QSG[dPro(4R-(4-pyridylmethyl))]) (ring closure inferred) [SEQ ID NO: 161]"
17,0.013,"cyclo([Bip(4'-COOH)][Ala(1-bicyclo(1.1.1)pentyl)][Phe(4-COOH)]G[Pro(cis-4-F)][Trp(βS-Me,4-F)][Aib]SW[Aib][Ala(morpholin-4-yl)]Q[Dab]G[dPro(4R-Bzl(4-F))]) (ring closure inferred) [SEQ ID NO: 167]"
18,0.031,"cyclo([Bip(4'-COOH)][4Pal][Phe(4-COOH)]G[Pro(cis-4-F)][Trp(βS-Me,4-F)][Aib]EW[Aib][Ala(pyrimidin-5-yl)]QKG[dPro(3S-(4-Br-benzyl))]) (ring closure inferred) [SEQ ID NO: 152]"
19,0.03,"cyclo([Bip(4'-COOH)][Cba][Phe(4-COOH)]G[Pro(cis-4-F)][Trp(βS-Me,4-F)][Aib]SW[Aib][Ala(pyrimidin-5-yl)]Q[Dab]G[dPro(4R-(4-pyridylmethyl))]) (ring closure inferred) [SEQ ID NO: 163]"
